# Test results published in paper PMC10881741, “Structural modifications toward improved lead-203/lead-212 peptide-based image-guided alpha-particle radiopharmaceutical therapies for neuroendocrine tumors” (European Journal of Nuclear Medicine and Molecular Imaging, 2023).
# Read-outs that look alike come from different tables or passages of the source.
# Experiments:
# [1] = In vivo biodistribution of ^203Pb-labeled peptides; design: species or system mice; details: female, athymic nu/nu, mouse, total radioactivity; for tissue uptake at 1 h / tissue uptake at 3 h / tissue uptake at 6 h / tissue uptake at 24 h: intravenous; for tissue to tissue ratio at 1 h / tissue to tissue ratio at 3 h / tissue to tissue ratio at 24 h: iv
# Description: AR42J cells (5.0 × 10^6 cells/animal) were implanted subcutaneously on the left shoulder of female athymic nu/nu mice. […] Extra groups of mice were co-administered 37 kBq of ^203Pb-PSC-PEG2-TOC with DL-lysine (400 mg/kg) to determine the effect of amino acid on renal uptake of the radiopharmaceutical. Mice (n=3 per time point) were euthanized at 1, 3, and 24 h post-administration, and tumors and organs/tissues of interest were excised and weighed. The radioactivities of the samples were measured using the gamma counter.
# [2] = tested on: AR42J xenografts; assay: SPECT/CT imaging with blocking by unlabeled peptide; assay type: in vivo, mice; details: 11.1 MBq, 30 nmol unlabeled PSC-PEG2-TOC
# Description: Serial SPECT/CT imaging was conducted at 3 h and 24 h post-administration. The imaging study was performed at the University of Iowa Small Animal Imaging Core using an INVEON trimodality SPECT/positron emission tomography (PET)/CT scanner (Siemens Preclinical, Knoxville, TN) equipped with medium-energy (0.3 mm) pinhole collimators. Data were reconstructed using three-dimensional ordered-subsets expectation maximization (OSEM-3D) algorithm with eight iterations and six subsets. Post-reconstruction images were smoothed with a 3D Gaussian kernel. Post-imaging biodistribution of the radiotracer in mice was obtained at 30 h post-administration.
# [3] = tested on: AR42J cells; assay: Cellular uptake of ^203Pb-labeled peptides; assay type: cell-based, rat; details: 2 h post-incubation
# Description: PSCTOC and PSC-PEG2-TOC were labeled with ^203Pb and purified via HPLC for high molar activities as descibed in the Supplementary Material and in Li and collaborators. The HPLC-purified ^203Pb-labeled peptides (3.4 kBq) were incubated with AR42J cells in 24-well plates (pre-coated with poly-D-lysine), which were plated at a density of 2.0 × 10^5 cells 2 days prior, in the binding medium at 37 °C for up to 120 min. The cells were then washed twice and lysed, and the radioactivities of the samples were determined (n=3).
compound,measurement,setting,value
"C[C@@H](O)[C@@H]1NC(=O)[C@H](CCCCN)NC(=O)[C@@H](Cc2c[nH]c3ccccc23)NC(=O)[C@H](Cc2ccc(O)cc2)NC(=O)[C@@H](NC(=O)[C@@H](Cc2ccccc2)NC(=O)CCOCCOCCNC(=O)CN2CCN(CC(=O)O)CCN(CC(N)=O)CCN(CC(=O)O)CC2)CSSC[C@@H](C(=O)N[C@H](CO)[C@@H](C)O)NC1=O [[^203Pb]Pb-PSC-PEG2-TOC, metal not drawn]",tissue uptake at 1 h,"[1]; lung, 1 h, DL-lysine co-administered, read-out: Lung",4.48 ± 4.47 %ID/g
same,tissue uptake at 3 h,"[1]; lung, 3 h (Blocking): 10 nmol unlabeled PSC-PEG2-TOC co-administered, read-out: Lung",0.26 ± 0.03 %ID/g
same,tissue uptake at 3 h,"[1]; lung, 3 h, DL-lysine co-administered, read-out: Lung",4.76 ± 3.19 %ID/g
same,tissue uptake at 6 h,"[1]; lung, DL-lysine co-administered, read-out: Lung",5.6 ± 1.27 %ID/g
same,tissue uptake at 24 h,"[1]; lung, 24 h, DL-lysine co-administered, read-out: Lung",1.11 ± 0.74 %ID/g
same,tissue uptake at 1 h,"[1]; muscle, 37 kBq, 1 h post-administration, read-out: Muscle",0.29 ± 0.27 %ID/g
same,tissue uptake at 3 h,"[1]; muscle, 37 kBq, 3 h (No Lys), Table S4 study, read-out: Muscle",0.17 ± 0.1 %ID/g
same,tissue uptake at 3 h,"[1]; muscle, 37 kBq, 3 h post-administration, read-out: Muscle",0.03 ± 0.01 %ID/g
same,tissue uptake at 24 h,"[1]; muscle, 37 kBq, 24 h post-administration, read-out: Muscle",0.02 ± 0.01 %ID/g
same,tissue uptake at 1 h,"[1]; muscle, 1 h, DL-lysine co-administered, read-out: Muscle",0.48 ± 0.26 %ID/g
same,tissue uptake at 3 h,"[1]; muscle, 3 h (Blocking): 10 nmol unlabeled PSC-PEG2-TOC co-administered, read-out: Muscle",0.06 ± 0.03 %ID/g
same,tissue uptake at 3 h,"[1]; muscle, 3 h, DL-lysine co-administered, read-out: Muscle",0.03 ± 0.01 %ID/g
same,tissue uptake at 6 h,"[1]; muscle, DL-lysine co-administered, read-out: Muscle",0.02 ± 0.02 %ID/g
same,tissue uptake at 24 h,"[1]; muscle, 24 h, DL-lysine co-administered, read-out: Muscle",0.01 ± 0.01 %ID/g
same,tissue uptake at 3 h,"[1]; pancreas, 37 kBq, 3 h (No Lys), Table S4 study, read-out: Pancreas",2.29 ± 1.63 %ID/g
same,tissue uptake at 1 h,"[1]; pancreas, 1 h, DL-lysine co-administered, read-out: Pancreas",5.04 ± 1.33 %ID/g
same,tissue uptake at 3 h,"[1]; pancreas, 3 h (Blocking): 10 nmol unlabeled PSC-PEG2-TOC co-administered, read-out: Pancreas",0.22 ± 0.04 %ID/g
same,tissue uptake at 3 h,"[1]; pancreas, 3 h, DL-lysine co-administered, read-out: Pancreas",2.1 ± 0.68 %ID/g
same,tissue uptake at 6 h,"[1]; pancreas, DL-lysine co-administered, read-out: Pancreas",0.75 ± 0.16 %ID/g
same,tissue uptake at 24 h,"[1]; pancreas, 24 h, DL-lysine co-administered, read-out: Pancreas",0.33 ± 0.08 %ID/g
same,tissue uptake at 1 h,"[1]; small intestine, 37 kBq, 1 h post-administration, read-out: Small intestine",1.34 ± 0.35 %ID/g
same,tissue uptake at 3 h,"[1]; small intestine, 37 kBq, 3 h (No Lys), Table S4 study, read-out: Small intestine",0.6 ± 0.11 %ID/g
same,tissue uptake at 3 h,"[1]; small intestine, 37 kBq, 3 h post-administration, read-out: Small intestine",1.85 ± 0.22 %ID/g
same,tissue uptake at 24 h,"[1]; small intestine, 37 kBq, 24 h post-administration, read-out: Small intestine",0.17 ± 0.01 %ID/g
same,tissue uptake at 1 h,"[1]; small intestine, 1 h, DL-lysine co-administered, read-out: Small intestine",1.9 ± 0.74 %ID/g
same,tissue uptake at 3 h,"[1]; small intestine, 3 h (Blocking): 10 nmol unlabeled PSC-PEG2-TOC co-administered, read-out: Small intestine",0.81 ± 0.71 %ID/g
same,tissue uptake at 3 h,"[1]; small intestine, 3 h, DL-lysine co-administered, read-out: Small intestine",2.37 ± 0.78 %ID/g
same,tissue uptake at 6 h,"[1]; small intestine, DL-lysine co-administered, read-out: Small intestine",0.94 ± 0.32 %ID/g
same,tissue uptake at 24 h,"[1]; small intestine, 24 h, DL-lysine co-administered, read-out: Small intestine",0.15 ± 0.02 %ID/g
same,tissue uptake at 1 h,"[1]; spleen, 37 kBq, 1 h post-administration, read-out: Spleen",1.21 ± 0.17 %ID/g
same,tissue uptake at 3 h,"[1]; spleen, 37 kBq, 3 h (No Lys), Table S4 study, read-out: Spleen",0.97 ± 0.47 %ID/g
same,tissue uptake at 3 h,"[1]; spleen, 37 kBq, 3 h post-administration, read-out: Spleen",0.54 ± 0.29 %ID/g
same,tissue uptake at 24 h,"[1]; spleen, 37 kBq, 24 h post-administration, read-out: Spleen",0.28 ± 0.07 %ID/g
same,tissue uptake at 1 h,"[1]; spleen, 1 h, DL-lysine co-administered, read-out: Spleen",1.04 ± 0.4 %ID/g
same,tissue uptake at 3 h,"[1]; spleen, 3 h (Blocking): 10 nmol unlabeled PSC-PEG2-TOC co-administered, read-out: Spleen",0.14 ± 0.07 %ID/g
same,tissue uptake at 3 h,"[1]; spleen, 3 h, DL-lysine co-administered, read-out: Spleen",0.81 ± 0.3 %ID/g
same,tissue uptake at 6 h,"[1]; spleen, DL-lysine co-administered, read-out: Spleen",0.73 ± 0.17 %ID/g
same,tissue uptake at 24 h,"[1]; spleen, 24 h, DL-lysine co-administered, read-out: Spleen",0.41 ± 0.28 %ID/g
same,tissue uptake at 3 h,"[1]; stomach, 37 kBq, 3 h (No Lys), Table S4 study, read-out: Stomach",0.95 ± 0.13 %ID/g
same,tissue uptake at 1 h,"[1]; stomach, 1 h, DL-lysine co-administered, read-out: Stomach",1.46 ± 0.32 %ID/g
same,tissue uptake at 3 h,"[1]; stomach, 3 h (Blocking): 10 nmol unlabeled PSC-PEG2-TOC co-administered, read-out: Stomach",0.36 ± 0.15 %ID/g
same,tissue uptake at 3 h,"[1]; stomach, 3 h, DL-lysine co-administered, read-out: Stomach",2.36 ± 0.44 %ID/g
same,tissue uptake at 6 h,"[1]; stomach, DL-lysine co-administered, read-out: Stomach",0.78 ± 0.2 %ID/g
same,tissue uptake at 24 h,"[1]; stomach, 24 h, DL-lysine co-administered, read-out: Stomach",0.3 ± 0.12 %ID/g
same,tissue uptake at 1 h,"[1]; tumor, 37 kBq, 1 h post-administration, read-out: Tumor",28.2 ± 8.63 %ID/g
same,tissue uptake at 3 h,"[1]; tumor, 37 kBq, 3 h (No Lys), Table S4 study, read-out: Tumor",19.8 ± 1.61 %ID/g
same,tissue uptake at 3 h,"[1]; tumor, 37 kBq, 3 h post-administration, read-out: Tumor",22.8 ± 2.8 %ID/g
same,tissue uptake at 24 h,"[1]; tumor, 37 kBq, 24 h post-administration, read-out: Tumor",12.2 ± 3.81 %ID/g
same,tissue uptake at 1 h,"[1]; tumor, 1 h, DL-lysine co-administered, read-out: Tumor",24.4 ± 1.85 %ID/g
same,tissue uptake at 3 h,"[1]; tumor, 3 h (Blocking): 10 nmol unlabeled PSC-PEG2-TOC co-administered, read-out: Tumor",2.41 ± 0.46 %ID/g
same,tissue uptake at 3 h,"[1]; tumor, 3 h, DL-lysine co-administered, read-out: Tumor",22.9 ± 1.09 %ID/g
same,tissue uptake at 6 h,"[1]; tumor, DL-lysine co-administered, read-out: Tumor",18.9 ± 1.86 %ID/g
same,tissue uptake at 24 h,"[1]; tumor, 24 h, DL-lysine co-administered, read-out: Tumor",7.44 ± 0.41 %ID/g
same,tissue to tissue ratio at 1 h,"[1]; tumor/blood, 37 kBq, 1 h post-administration, read-out: Tumor/blood ratio",78.3
same,tissue to tissue ratio at 3 h,"[1]; tumor/blood, 37 kBq, 3 h post-administration, read-out: Tumor/blood ratio",456
same,tissue to tissue ratio at 24 h,"[1]; tumor/blood, 37 kBq, 24 h post-administration, read-out: Tumor/blood ratio",610
same,tissue to tissue ratio at 1 h,"[1]; tumor/kidneys, 37 kBq, 1 h post-administration, read-out: Tumor/kidneys ratio",1.37
same,tissue to tissue ratio at 3 h,"[1]; tumor/kidneys, 37 kBq, 3 h post-administration, read-out: Tumor/kidneys ratio",1.44
same,tissue to tissue ratio at 24 h,"[1]; tumor/kidneys, 37 kBq, 24 h post-administration, read-out: Tumor/kidneys ratio",8.36
same,tissue to tissue ratio at 1 h,"[1]; tumor/liver, 37 kBq, 1 h post-administration, read-out: Tumor/liver ratio",78.3
same,tissue to tissue ratio at 3 h,"[1]; tumor/liver, 37 kBq, 3 h post-administration, read-out: Tumor/liver ratio",99.1
same,tissue to tissue ratio at 24 h,"[1]; tumor/liver, 37 kBq, 24 h post-administration, read-out: Tumor/liver ratio",153
same,tissue to tissue ratio at 1 h,"[1]; tumor/lung, 37 kBq, 1 h post-administration, read-out: Tumor/lung ratio",7.87
same,tissue to tissue ratio at 3 h,"[1]; tumor/lung, 37 kBq, 3 h post-administration, read-out: Tumor/lung ratio",60
same,tissue to tissue ratio at 24 h,"[1]; tumor/lung, 37 kBq, 24 h post-administration, read-out: Tumor/lung ratio",8.36
same,tissue to tissue ratio at 1 h,"[1]; tumor/muscle, 37 kBq, 1 h post-administration, read-out: Tumor/muscle ratio",97.2
same,tissue to tissue ratio at 3 h,"[1]; tumor/muscle, 37 kBq, 3 h post-administration, read-out: Tumor/muscle ratio",760
same,tissue to tissue ratio at 24 h,"[1]; tumor/muscle, 37 kBq, 24 h post-administration, read-out: Tumor/muscle ratio",610
same,Tumor uptake with co-administration of excessive unlabeled peptide,[2],almost completely blocked
same,"Cellular uptake, factor vs. [^203Pb]Pb-PSCTOC",[3],4
same,"Cellular uptake, fold vs. [^203Pb]Pb-DOTATOC",[3],21 fold
same,Cellular uptake,[3]; 37 °C,18%
